Assay results taken from the domain aggregation screens of Martell et al. (2025).

test: soluble fraction after stress (log2 fold change); higher = more stays soluble; pooled small domains, quantitative proteomics; settings: stress: 50 degC
Method in brief: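 Pooled custom libraries of small protein domains were each held under stress at 50°C. The read-out, high-throughput quantitative proteomics, tracked how much of each protein stayed soluble. This is reported as a base-two log fold change used to indicate aggregation propensity. Higher values mean more protein remains in solution.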

| Sequence | soluble fraction (log2) |
| --- | --- |
| HMGFALLIAIERTGNTTYFVKLTLIKKGSDSDVLKDSFSVSQGDLVGTATYDSVIANRIREKTAAMWQKAT | -2.13 |
| HMEWEVHSVTVTPELSGERLDVAATALLSQFSRALVQRWIDANELTLNERPVKAKSKVRVGDLIAVKAK | -0.874 |
| HMLKEGIKEKINQLQVYADKNDNIIWYDRVVDILSDKDDSVTDEMIEAAIRTLEEAGISVERKQ | 0.0259 |
| HMKEIATKSELTYFIQRLLDLLEETNFFNPEERKKAMINHIEAIFRRNNLTLQELNMLHGIITSITR | -2.62 |
| HMINYSQKQLIAIQDELSKRFQALENESTKNNVTGFGVGLHYIDIDLIVNTPEKQKEFREKIMDSPAFRFN | -0.839 |
| HMAVKNAQIDVQQFFYSKSGEVDFGRKIKAIQSHFTPERLQSFTAAVPPSQWVSQLQVMWDSL | -1.39 |
| HMTAQGDSSDAVQRAITEILRHEDPSHPFSDQQLVIKLRTMDISVSRRTVTKYRKLLHIPSSTHRK | -2.74 |
| HMDNLSESQIKAYSSILSRTHEISDLAENKDYLAFSLWIANILRDPQSVREETAKRVFSALHTNTDFK | -0.945 |
| HMHQVHKIDGVKYYLHLVEKGNTLYGISKQYNVSVERIEKANTEALSDGLKENQTLLIPVTSDNKKT | 0.0414 |
| HMDIASNQIQGIKDSVGGDENYSKMVAWALESLPAEEVKAFNDLTETANAPAIKMAVQGLYSQYNNAM | 0.264 |
| HMINYYELLKLDMNAAHEEINDAIKLESEKNTIPEDQIRTMKSIFFNTEFKKEYDQRLMNFLLT | -0.319 |
| HMVGEQISYIPLKFATASEVVKSLTSMFQQQKGIAPIRIVAEERTNAILLLASEADTARVKNLIAMMDKGV | -0.0246 |
| HMDEEAIELTQEVMKLPPKQREVILLYYYHGLTGKEIAKALGISGAAVSKRLKQAKNQLHFALK | -0.0921 |
| HMFIEMDEPEKILHRILNEANGKLELDKIGYRAEWPIGKVLTVLMSLELKGVVQSHPGKVYSL | -0.154 |
| HMKHAIKEKIRNEYVHGYLNEEGYRVMPTLDELIRKYEVPASSTYRASSKEGWKKQKEAFLEHLRGEIDA | -0.139 |
| HMKTALDEAKDFLNGALSKGHRPASDVVDEAKEASISEKTLKRAKLAIGIITRKEGFGSEGKWVWELPAR | -0.341 |
| HMAEGPYSGKKVEKYPGGMEKRETMYSEGKLTRVTEFHQSGQKKMEVKVDANGQWKRLYWDNNGNPT | 0.07 |
| HMRENAARNRNVNLDIGETLRVDAWSPERRARVQYRGAAWDVELAPNAPATVGEFRIVEVRGNVLVVTP | 0.0231 |
| HMVGMDRYFKIKNIKDSSAAFERDYILHFLKENDWMVSKTAQMIGLERTTLYKKIKQLGLASMLEN | -2.85 |

| Sequence | soluble fraction (log2) |
| --- | --- |
| HMLGITEGSLVRVIRSPNFGKIGTVAELPAELRMMESETMVRIAIVEIEGTNFEIPRSNLEVLET | -1.55 |
| HMAMSDFDALSNRISTLSQGRASAVRMKDGIVSLVLDIGGLSAEERKAMTAAIEGEGRGYPSVTQVRILET | 0.0462 |
| HMNTLSPVRILAILDGRSSMAEWQLAEELGVSIDNLSEILNKMSTDGQIRLVPSEDGRMVVP | 0.265 |
| HMTQNSAITNRVLYMQRTLRQYGYAVPESGNFDRTTRAHAAEFLYNATGLPVRENQSVQEFYRAFQRVQG | -0.981 |
| HMESWNRARILEKIRELHAQGVALNNASMRRLGYRGMMEAAARPQNFGSWEAAVRAAGIDYDRV | -0.00832 |
| HMKDITAVISKKKGRDYYYIIVSYHLSNGKRVQKWIKTEFSVNGNNKRKLEQKRIEILQEWQNKLV | -0.642 |
| HMQILLASHAELAKGILSAVELIAGTQQNLKAYSAYTEAVDVHFKDQMLQDLNKMDPEDEVIL | 0.0294 |
| HMRKDRKVLMERGRHIFNDLLEKEGIVATNQLMTKLLASHHLRNRDELYLMLANDDISLSSKEIKDLS | 0.0203 |
| HMKTITLDEAQEIALAEVDGKVTRAVEETDDGRSYYEFDIITNDQKHELEVDASSGKITKNEIDEDYVPS | 0.171 |
| HMDAEKHIVTPEAGLRLDRALTDALPNLSRSRVKQLINEGLVTTENKTITAPSYRVKYGDSFEISIPPPT | -0.0636 |
| HMSQEHTVPDYKDMEATVVYADLTQKGLNYEIAQETSPTIKEGNVTQTIPGMNEKVVSGDTITVFVSTGTG | 0.193 |
| HMTPGPFLVYITGAVERPNVLVTLDYGSRVIDALNAAGGSRIDANLDLVNLAQRLVDGDQIHVPTLR | -1.28 |
| HMQSQIAQLYNPLLGYVKKRINSREDAEDLTQDIFLKLSKSNKDGVDNLKSWLYTIAKNTITDYYRKKKII | 0.15 |
| HMNMLGSNIKYLRNRHKLSQQELSEKLGVPRSSLSDYERGHTQVGLDSLIKLADIFDVKIDDLLRSNLSHR | -0.0552 |
| HMDSLELADEVGRVSEALQELRPHQREVLELSLVHGRSHQQISEKTGLALGTVKSHARRGLMRVREMLGV | -0.445 |
| HMQLDLSDPSKNKLDSIVSLPIKSLKAVEANGEILFMSENGRFVLRGQLYDIWYKDTLDTSAQIQDAATRI | 0.109 |
| HMFQRLPFSFANRYKMVLEYQHPERPPVLYYVEPLKAAAILEVSRVIKSGFTPQAIVSDEFEKKLTEAYQR | -1.1 |
| HMSTMTDAQRHLFANKLSQLPEMGKYSHGTESYQQFAVRIAEMLQTPKKFKELYPYLQKVGFKA | 0.00319 |
